According to article PMC4615653 (RNA Biology, 2015):

Target: the molecule itself
Test: zonal velocity sedimentation in a glycerol gradient

B1: CshA-His6 (natural protein, S. aureus, UniProt Q2FWH5 1-506, looked up)
chain: MQNFKELGISDNTVQSLESMGFKEPTPIQKDSIPYALQGIDILGQAQTGTGKTGAFGIPLIEKVVGKQGVQSLILAPTRELAMQVAEQLREFSRGQGVQVVTVFGGMPIERQIKALKKGPQIVVGTPGRVIDHLNRRTLKTDGIHTLILDEADEMMNMGFIDDMRFIMDKIPAVQRQTMLFSATMPKAIQALVQQFMKSPKIIKTMNNEMSDPQIEEFYTIVKELEKFDTFTNFLDVHQPELAIVFGRTKRRVDELTSALISKGYKAEGLHGDITQAKRLEVLKKFKNDQINILVATDVAARGLDISGVSHVYNFDIPQDTESYTHRIGRTGRAGKEGIAVTFVNPIEMDYIRQIEDANGRKMSALRPPHRKEVLQAREDDIKEKVENWMSKESESRLKRISTELLNEYNDVDLVAALLQELVEANDEVEVQLTFEKPLSRKGRNGKPSGSRNRNSKRGNPKFDSKSKRSKGYSSKKKSTKKFDRKEKSSGGSRPMKGRTFADHQK
stoichiometry N: 2
